Experimental data published in patent US20210108174A1 (CRISPR THERAPEUTICS, published 2021).

Target: T1, biotinylated recombinant human BCMA (human, UniProt Q02223 1-54, biotinylated)
T1 construct: Bought reagent; also called biotinylated BCMA; Recombinant biotinylated human BCMA (Acro Biosystems Cat:# BC7-H82F0)
T1 sequence (looked up): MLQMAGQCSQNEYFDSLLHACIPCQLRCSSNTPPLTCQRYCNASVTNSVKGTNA
Assay: flow cytometry, biotinylated BCMA detected with streptavidin-APC on CAR T cells

B1: Anti-BCMA CAR of CTX-160 (CD28 co-stimulatory domain) (other)
chain: EVQLVESGGGLVQPGGSLKLSCAASGIDFSRYWMSWVRQAPGKGLEWIGEINPDSSTINYADSVKGRFTISRDNAKNTLYLQMNLSRAEDTALYYCASLYYDYGDAMDYWGQGTLVTVSSGGGGSGGGGSGGGGSDIQMTQSPSSLSASVGDRVTITCRASQSVDSNVAWYQQKPEKAPKSLIFSASLRFSGVPSRFSGSGSGTDFTLTISSLQPEDFATYYCQQYNSYPLTFGAGTKLEIKSAAAFVPVFLPAKPTTTPAPRPPTPAPTIASQPLSLRPEACRPAAGGAVHTRGLDFACDIYIWAPLAGTCGVLLLSLVITLYCNHRNRSKRSRLLHSDYMNMTPRRPGPTRKHYQPYAPPRDFAAYRSRVKFSRSADAPAYQQGQNQLYNELNLGRREEYDVLDKRRGRDPEMGGKPRRKNPQEGLYNELQKDKMAEAYSEIGMKGERRRGKGHDGLYQGLSTATKDTYDALHMQALPPR
notes: Chimeric antigen receptor on edited primary human T cells; also called anti-BCMA (CD28) CAR
percent of cells that bound biotinylated BCMA: 60%
